# Measured values reported in paper PMC11314397, “Purification and Characterization of Proteinaceous Thermostable α-Amylase Inhibitor from Sardinian Common Bean Nieddone Cultivar (Phaseolus vulgaris L.)” (Plants, 2024).
# T1: α-amylase from porcine pancreas (porcine, UniProt P00690 16-511)
# T1 construct: pancreatic α-amylase, pig, from porcine pancreas; also called porcine pancreatic α-amylase; pig α-amylase; source: bought: Sigma-Aldrich (Type VI-B A3176-2.5MU)
# T1 sequence (looked up): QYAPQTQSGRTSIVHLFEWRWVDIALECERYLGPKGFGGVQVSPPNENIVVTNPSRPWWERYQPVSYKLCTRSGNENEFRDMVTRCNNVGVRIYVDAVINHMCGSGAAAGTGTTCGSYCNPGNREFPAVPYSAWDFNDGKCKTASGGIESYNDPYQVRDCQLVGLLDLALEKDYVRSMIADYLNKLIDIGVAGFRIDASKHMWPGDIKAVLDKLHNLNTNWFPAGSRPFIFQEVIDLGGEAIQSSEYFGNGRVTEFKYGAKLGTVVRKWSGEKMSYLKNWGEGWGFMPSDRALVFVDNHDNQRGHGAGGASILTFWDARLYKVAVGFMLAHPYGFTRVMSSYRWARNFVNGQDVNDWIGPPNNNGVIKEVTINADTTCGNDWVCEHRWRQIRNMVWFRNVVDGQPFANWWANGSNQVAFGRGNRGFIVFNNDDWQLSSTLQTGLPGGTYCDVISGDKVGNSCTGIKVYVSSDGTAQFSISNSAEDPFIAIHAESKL
# B1: α-amylase inhibitor (α-AI) purified from Phaseolus vulgaris Nieddone cultivar (complex)
# chain 1: ATETSFIIDAFNKTNLILQGDATVSSNGNLQLSYNSYDSMSRAFYSAPIQIRDSTTGNVASFDTNFTMNIRTHRQAN
# chain 2: SAVGLDFVLVPVQPESKGDTVTVEFDTFLSRISIDVNNNDIKSVPWDVHDYDGQNAEVRITYNSSTKVFSVSLSNPSTGKSNNVSTTVELEKEVYDWVSVGFSATSGAYQWSYETHDVLSWSFSSKFINLKDQKSERSN
# modifications: native seed glycoprotein (N-glycosylated; sites not given); alpha2beta2 tetramer cleaved after Asn77 (mature numbering, = Asn100 of precursor). Reference sequence P02873 used: Nieddone cultivar …
# What was measured:
# [1] = biological target: α-amylase from Tenebrio molitor (Tenebrio molitor (endogenous in larvae)) (UniProt P56634)
# Chain of α-amylase from Tenebrio molitor (Tenebrio molitor (endogenous in larvae)) (P56634 whole entry): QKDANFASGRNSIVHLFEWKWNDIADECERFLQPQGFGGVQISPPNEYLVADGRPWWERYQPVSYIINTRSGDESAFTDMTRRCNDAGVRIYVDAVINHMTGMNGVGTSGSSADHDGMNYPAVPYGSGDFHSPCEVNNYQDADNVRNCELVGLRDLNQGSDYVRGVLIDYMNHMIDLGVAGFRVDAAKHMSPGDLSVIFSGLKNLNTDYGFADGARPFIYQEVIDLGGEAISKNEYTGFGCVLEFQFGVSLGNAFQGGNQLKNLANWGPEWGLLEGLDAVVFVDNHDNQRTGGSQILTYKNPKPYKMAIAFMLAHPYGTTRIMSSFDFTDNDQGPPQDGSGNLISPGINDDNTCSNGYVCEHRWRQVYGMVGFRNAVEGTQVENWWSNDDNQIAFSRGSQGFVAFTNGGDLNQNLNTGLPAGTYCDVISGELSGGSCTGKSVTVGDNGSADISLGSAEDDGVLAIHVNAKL
# [2] = biological target: T1, α-amylase from porcine pancreas; test: enzyme inhibition kinetics (Lineweaver-Burk); porcine α-amylase with 0, 0.25 and 0.50 µM α-AI, CNP-G3 0.1 to 5 mM as substrate, 250 mM sodium phosphate pH 6.5, 60 mM NaCl, 5 mM CaCl2, 500 mM KSCN, 37 °C, 10 min preincubation; mixed-type inhibition; conditions: both partners purified
binder,measurement,setting,value
B1,"inhibitory power against α-amylase, CNP-G3 assay; susceptibility against that of human salivary and porcine pancreatic α-amylase",[1],3 fold
same,Ki,[2],170 nM
